The record followed here is patent publication US20030186281A1, “Modified tetracycline repressor protein compositions and methods of use” (priority 2001, published 2003).

For the series, the system named is tet operator sequence. As to the kind of experiment: β-galactosidase activity of a tetracycline-regulated promoter in transformed E. coli with revTetR, in the presence and absence of anhydrotetracycline (atc). To be noted: for β-Galactosidase Activity, Cultured Without ATC: RevTetR isolate cultured in the absence of anhydrotetracycline (ATC); for β-Galactosidase Activity, Cultured With ATC: RevTetR isolate cultured in the presence of anhydrotetracycline (ATC). The class given is cell-based, Escherichia coli. The gist of the method: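 TetR(BD) chimera mutants (TetR(B) residues 1–50, TetR(D) 51–208) expressed in E. coli regulating a tet operator-controlled lacZ. β-Galactosidase measured in Miller units at 28 °C and 37 °C with and without anhydrotetracycline; reported as percent of maximal expression without Tet repressor.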

B1: TetRrevAF4/13: revTetR(BD) A13A E15D L17L E19V I22I E23K R94H G95N (protein)
chain: MSRLDKSKVINSALDLLNVVGIKGLTTRKLAQKLGVEQPTLYWHVKNKRALLDALAVEILARHHDYSLPAAGESWQSFLRNNAMSFRRALLRYHNGAKVHLGTRPDEKQYDTVETQLRFMTENGFSLRDGLYAISAVSHFTLGAVLEQQEHTAALTDRPAAPDENLPPLLREALQIMDSDDGEQAFLHGLESLIRGFEVQLTALLQIV
modifications: Modified tetracycline repressor
notes: revTetR(BD) A13A E15D L17L E19V I22I E23K R94H G95N
Turning to B1, the “β-Galactosidase Activity, Cultured Without ATC” value is 98.8886 and the “β-Galactosidase Activity, Cultured With ATC” value was 2.5827.

B2: TetRrevAF5/13: revTetR(BD) L14L V20G V99E (protein)
chain: MSRLDKSKVINSALELLNEGGIEGLTTRKLAQKLGVEQPTLYWHVKNKRALLDALAVEILARHHDYSLPAAGESWQSFLRNNAMSFRRALLRYRDGAKEHLGTRPDEKQYDTVETQLRFMTENGFSLRDGLYAISAVSHFTLGAVLEQQEHTAALTDRPAAPDENLPPLLREALQIMDSDDGEQAFLHGLESLIRGFEVQLTALLQIV
modifications: Modified tetracycline repressor
notes: revTetR(BD) L14L V20G V99E
Regarding B2, the “β-Galactosidase Activity, Cultured Without ATC” value is on record as 105.942 and the “β-Galactosidase Activity, Cultured With ATC” value was found to be 4.4642.

B3: TetRrevAF6/1: revTetR(BD) A13A E19V V20A D95I G96G (protein)
chain: MSRLDKSKVINSALELLNVAGIEGLTTRKLAQKLGVEQPTLYWHVKNKRALLDALAVEILARHHDYSLPAAGESWQSFLRNNAMSFRRALLRYRIGAKVHLGTRPDEKQYDTVETQLRFMTENGFSLRDGLYAISAVSHFTLGAVLEQQEHTAALTDRPAAPDENLPPLLREALQIMDSDDGEQAFLHGLESLIRGFEVQLTALLQIV
modifications: Modified tetracycline repressor
notes: revTetR(BD) A13A E19V V20A D95I G96G
Consider B3, for which the “β-Galactosidase Activity, Cultured Without ATC” value is reported as 72.8186 and the “β-Galactosidase Activity, Cultured With ATC” value turned out to be 3.7966.

B4: TetRrev96/99-4: revTetR(BD) G96P V99S (protein)
chain: MSRLDKSKVINSALELLNEVGIEGLTTRKLAQKLGVEQPTLYWHVKNKRALLDALAVEILARHHDYSLPAAGESWQSFLRNNAMSFRRALLRYRDPAKSHLGTRPDEKQYDTVETQLRFMTENGFSLRDGLYAISAVSHFTLGAVLEQQEHTAALTDRPAAPDENLPPLLREALQIMDSDDGEQAFLHGLESLIRGFEVQLTALLQIV
modifications: Modified tetracycline repressor
notes: revTetR(BD) G96P V99S
As to B4, the “β-Galactosidase Activity, Cultured Without ATC” value stood at 109.291 and the “β-Galactosidase Activity, Cultured With ATC” value is given as 32.997.

B5: TetRrevAF6/5: revTetR(BD) V20V I22V E23D D95N H100P (protein)
chain: MSRLDKSKVINSALELLNEVGVDGLTTRKLAQKLGVEQPTLYWHVKNKRALLDALAVEILARHHDYSLPAAGESWQSFLRNNAMSFRRALLRYRNGAKVPLGTRPDEKQYDTVETQLRFMTENGFSLRDGLYAISAVSHFTLGAVLEQQEHTAALTDRPAAPDENLPPLLREALQIMDSDDGEQAFLHGLESLIRGFEVQLTALLQIV
modifications: Modified tetracycline repressor
notes: revTetR(BD) V20V I22V E23D D95N H100P
On to B5, for which the “β-Galactosidase Activity, Cultured Without ATC” value was determined as 102.848 and the “β-Galactosidase Activity, Cultured With ATC” value is recorded as 2.8572.

B6: TetRrevAtc4-16: revTetR(BD) D53N A54G V57F I59S L60F (protein)
chain: MSRLDKSKVINSALELLNEVGIEGLTTRKLAQKLGVEQPTLYWHVKNKRALLNGLAFESFARHHDYSLPAAGESWQSFLRNNAMSFRRALLRYRDGAKVHLGTRPDEKQYDTVETQLRFMTENGFSLRDGLYAISAVSHFTLGAVLEQQEHTAALTDRPAAPDENLPPLLREALQIMDSDDGEQAFLHGLESLIRGFEVQLTALLQIV
modifications: Modified tetracycline repressor
notes: revTetR(BD) D53N A54G V57F I59S L60F
Consider B6, for which the “β-Galactosidase Activity, Cultured Without ATC” value came to 104.174 and the “β-Galactosidase Activity, Cultured With ATC” value is on record as 16.914.

B7: TetRrevAF5/3: revTetR(BD) E15G N18K R94H G96G G102V (protein)
chain: MSRLDKSKVINSALGLLKEVGIEGLTTRKLAQKLGVEQPTLYWHVKNKRALLDALAVEILARHHDYSLPAAGESWQSFLRNNAMSFRRALLRYHDGAKVHLVTRPDEKQYDTVETQLRFMTENGFSLRDGLYAISAVSHFTLGAVLEQQEHTAALTDRPAAPDENLPPLLREALQIMDSDDGEQAFLHGLESLIRGFEVQLTALLQIV
modifications: Modified tetracycline repressor
notes: revTetR(BD) E15G N18K R94H G96G G102V
Consider B7, for which the “β-Galactosidase Activity, Cultured Without ATC” value was determined as 58.5651 and the “β-Galactosidase Activity, Cultured With ATC” value came out at 1.8337.

B8: TetRrev96/99-5: revTetR(BD) G96I V99K (protein)
chain: MSRLDKSKVINSALELLNEVGIEGLTTRKLAQKLGVEQPTLYWHVKNKRALLDALAVEILARHHDYSLPAAGESWQSFLRNNAMSFRRALLRYRDIAKKHLGTRPDEKQYDTVETQLRFMTENGFSLRDGLYAISAVSHFTLGAVLEQQEHTAALTDRPAAPDENLPPLLREALQIMDSDDGEQAFLHGLESLIRGFEVQLTALLQIV
modifications: Modified tetracycline repressor
notes: revTetR(BD) G96I V99K
As for B8, the “β-Galactosidase Activity, Cultured Without ATC” value is 57.8391 and the “β-Galactosidase Activity, Cultured With ATC” value was 17.087.

B9: TetRrev96/99-6: revTetR(BD) G96N V99Q (protein)
chain: MSRLDKSKVINSALELLNEVGIEGLTTRKLAQKLGVEQPTLYWHVKNKRALLDALAVEILARHHDYSLPAAGESWQSFLRNNAMSFRRALLRYRDNAKQHLGTRPDEKQYDTVETQLRFMTENGFSLRDGLYAISAVSHFTLGAVLEQQEHTAALTDRPAAPDENLPPLLREALQIMDSDDGEQAFLHGLESLIRGFEVQLTALLQIV
modifications: Modified tetracycline repressor
notes: revTetR(BD) G96N V99Q
Consider B9, for which the “β-Galactosidase Activity, Cultured Without ATC” value is listed as 103.602 and the “β-Galactosidase Activity, Cultured With ATC” value is on record as 28.364.

B10: TetRrev96/99-2: revTetR(BD) G99K V99A (protein)
chain: MSRLDKSKVINSALELLNEVGIEGLTTRKLAQKLGVEQPTLYWHVKNKRALLDALAVEILARHHDYSLPAAGESWQSFLRNNAMSFRRALLRYRDKAKAHLGTRPDEKQYDTVETQLRFMTENGFSLRDGLYAISAVSHFTLGAVLEQQEHTAALTDRPAAPDENLPPLLREALQIMDSDDGEQAFLHGLESLIRGFEVQLTALLQIV
modifications: Modified tetracycline repressor
notes: revTetR(BD) G99K V99A
As to B10, the “β-Galactosidase Activity, Cultured Without ATC” value came out at 94.5832 and the “β-Galactosidase Activity, Cultured With ATC” value was 31.604.

B11: TetRrevAF5/5: revTetR(BD) L14V L17F V20A I22M L25F D95H (protein)
chain: MSRLDKSKVINSAVELFNEAGMEGFTTRKLAQKLGVEQPTLYWHVKNKRALLDALAVEILARHHDYSLPAAGESWQSFLRNNAMSFRRALLRYRHGAKVHLGTRPDEKQYDTVETQLRFMTENGFSLRDGLYAISAVSHFTLGAVLEQQEHTAALTDRPAAPDENLPPLLREALQIMDSDDGEQAFLHGLESLIRGFEVQLTALLQIV
modifications: Modified tetracycline repressor
notes: revTetR(BD) L14V L17F V20A I22M L25F D95H
With B11, the “β-Galactosidase Activity, Cultured Without ATC” value turned out to be 100.546 and the “β-Galactosidase Activity, Cultured With ATC” value is recorded as 1.6948.

B12: TetRrev96/99-1: revTetR(BD) G96H V99R (protein)
chain: MSRLDKSKVINSALELLNEVGIEGLTTRKLAQKLGVEQPTLYWHVKNKRALLDALAVEILARHHDYSLPAAGESWQSFLRNNAMSFRRALLRYRDHAKRHLGTRPDEKQYDTVETQLRFMTENGFSLRDGLYAISAVSHFTLGAVLEQQEHTAALTDRPAAPDENLPPLLREALQIMDSDDGEQAFLHGLESLIRGFEVQLTALLQIV
modifications: Modified tetracycline repressor
notes: revTetR(BD) G96H V99R
Regarding B12, the “β-Galactosidase Activity, Cultured Without ATC” value was 58.4545 and the “β-Galactosidase Activity, Cultured With ATC” value is recorded as 25.484.

B13: TetRrevAF5/1: revTetR(BD) L14F D95A V99G (protein)
chain: MSRLDKSKVINSAFELLNEVGIEGLTTRKLAQKLGVEQPTLYWHVKNKRALLDALAVEILARHHDYSLPAAGESWQSFLRNNAMSFRRALLRYRAGAKGHLGTRPDEKQYDTVETQLRFMTENGFSLRDGLYAISAVSHFTLGAVLEQQEHTAALTDRPAAPDENLPPLLREALQIMDSDDGEQAFLHGLESLIRGFEVQLTALLQIV
modifications: Modified tetracycline repressor
notes: revTetR(BD) L14F D95A V99G
Take B13: the “β-Galactosidase Activity, Cultured Without ATC” value turned out to be 100.053 and the “β-Galactosidase Activity, Cultured With ATC” value is 1.072.

B14: TetRrevAtc4-14: revTetR(BD) L51L D53Q V57V E58K L60L A61V R62P H63D (protein)
chain: MSRLDKSKVINSALELLNEVGIEGLTTRKLAQKLGVEQPTLYWHVKNKRALLQALAVKILVPDHDYSLPAAGESWQSFLRNNAMSFRRALLRYRDGAKVHLGTRPDEKQYDTVETQLRFMTENGFSLRDGLYAISAVSHFTLGAVLEQQEHTAALTDRPAAPDENLPPLLREALQIMDSDDGEQAFLHGLESLIRGFEVQLTALLQIV
modifications: Modified tetracycline repressor
notes: revTetR(BD) L51L D53Q V57V E58K L60L A61V R62P H63D
For B14, the “β-Galactosidase Activity, Cultured Without ATC” value worked out at 62.985 and the “β-Galactosidase Activity, Cultured With ATC” value is 25.025.

B15: TetRrev96/99-3: revTetR(BD) G96E V99T (protein)
chain: MSRLDKSKVINSALELLNEVGIEGLTTRKLAQKLGVEQPTLYWHVKNKRALLDALAVEILARHHDYSLPAAGESWQSFLRNNAMSFRRALLRYRDEAKTHLGTRPDEKQYDTVETQLRFMTENGFSLRDGLYAISAVSHFTLGAVLEQQEHTAALTDRPAAPDENLPPLLREALQIMDSDDGEQAFLHGLESLIRGFEVQLTALLQIV
modifications: Modified tetracycline repressor
notes: revTetR(BD) G96E V99T
As to B15, the “β-Galactosidase Activity, Cultured Without ATC” value stood at 103.749 and the “β-Galactosidase Activity, Cultured With ATC” value was 31.808.
